Data taken from patent US20240209100A1 (DIAGONAL THERAPEUTICS, published 2024).

Experiments:
[1] = target: T1, IL-18 receptor (IL-18Rα/IL-18Rβ) overexpressed on HEK-Blue IL-18 cells (Homo sapiens (Human), UniProt Q13478 19-541; O95256 20-599); test: cell-based or functional assay
T1 sequence 1: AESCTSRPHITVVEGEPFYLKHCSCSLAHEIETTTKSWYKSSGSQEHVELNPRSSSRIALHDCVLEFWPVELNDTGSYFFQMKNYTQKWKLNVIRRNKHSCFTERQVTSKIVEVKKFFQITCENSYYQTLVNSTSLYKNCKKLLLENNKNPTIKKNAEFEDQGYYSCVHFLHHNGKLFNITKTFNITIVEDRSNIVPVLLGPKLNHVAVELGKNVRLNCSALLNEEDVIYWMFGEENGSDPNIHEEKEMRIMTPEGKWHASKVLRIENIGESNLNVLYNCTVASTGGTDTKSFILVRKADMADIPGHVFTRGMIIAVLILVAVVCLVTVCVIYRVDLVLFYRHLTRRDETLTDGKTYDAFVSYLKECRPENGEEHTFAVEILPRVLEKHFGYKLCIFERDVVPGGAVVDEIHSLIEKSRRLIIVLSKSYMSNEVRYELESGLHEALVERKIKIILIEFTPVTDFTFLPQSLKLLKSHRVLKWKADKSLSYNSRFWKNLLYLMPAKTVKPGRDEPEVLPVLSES
T1 sequence 2: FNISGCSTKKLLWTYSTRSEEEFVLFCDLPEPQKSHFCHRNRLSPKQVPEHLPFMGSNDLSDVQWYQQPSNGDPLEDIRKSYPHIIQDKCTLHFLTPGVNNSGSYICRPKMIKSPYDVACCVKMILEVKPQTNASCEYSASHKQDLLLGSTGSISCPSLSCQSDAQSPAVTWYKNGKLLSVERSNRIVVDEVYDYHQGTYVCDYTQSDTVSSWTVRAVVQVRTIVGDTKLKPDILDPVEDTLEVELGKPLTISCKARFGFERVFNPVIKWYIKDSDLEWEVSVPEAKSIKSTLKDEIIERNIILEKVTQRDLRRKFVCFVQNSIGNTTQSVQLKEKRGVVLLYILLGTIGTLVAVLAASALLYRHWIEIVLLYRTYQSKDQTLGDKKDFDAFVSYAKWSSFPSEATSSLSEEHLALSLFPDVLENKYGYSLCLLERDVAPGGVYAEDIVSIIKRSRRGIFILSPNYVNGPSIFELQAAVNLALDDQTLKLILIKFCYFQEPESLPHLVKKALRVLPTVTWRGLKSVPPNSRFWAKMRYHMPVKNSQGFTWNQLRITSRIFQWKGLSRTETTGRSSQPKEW

[2] = target: T1, IL-18 receptor (IL-18Rα/IL-18Rβ) …; test: cell-based or functional assay; remark: listed apart in the source
[3] = target: T2, human IL-18Rβ (human, UniProt O95256 20-356, limits assumed); test: SPR (Carterra LSA), antibody captured on anti-human IgG-Fc, monomeric antigen as analyte, 25 C
T2 construct: Monomeric antigen injected in SPR; also called IL-18R beta; IL-18Rb
T2 sequence: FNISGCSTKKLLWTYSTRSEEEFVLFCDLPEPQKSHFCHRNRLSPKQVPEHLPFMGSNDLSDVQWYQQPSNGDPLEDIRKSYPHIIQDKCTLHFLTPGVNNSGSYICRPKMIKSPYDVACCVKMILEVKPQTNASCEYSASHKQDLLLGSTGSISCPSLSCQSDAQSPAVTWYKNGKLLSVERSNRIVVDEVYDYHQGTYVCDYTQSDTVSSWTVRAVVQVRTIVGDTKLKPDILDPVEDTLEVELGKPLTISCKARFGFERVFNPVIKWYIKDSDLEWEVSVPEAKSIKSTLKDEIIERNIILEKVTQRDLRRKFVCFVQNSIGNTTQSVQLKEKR
Experimental: (§1) SPR experiments were performed using Carterra LSA equipped with an HC30M chip (Carterra-Bio). Binding assays were carried out at 25° C. with HBSTE (10 mM HEPES ph7.4, 150 mM NaCl, 3 mM EDTA, 0.05% Tween-20) with 0.5 g/L BSA. A density of anti-human IgG-Fc capture lawn was established on an HC30M chip using amine coupling. […] Coupling of goat anti-human IgG (H+L) multi-species SP ads-UNLB (Southern Biotech, 2087-01) with standard immobilization was done for 15 minutes in 10 mM sodium acetate pH 4.5 and quenched using 1M ethanolamine HCl PH8.5. The anti-human IgG-Fc capture surface was then used to capture a panel of antibodies at 20 μg/mL. Monomeric antigen for human IL-18Rα, human IL-18Rβ, cynomolgus IL-18Rα, or rhesus IL-18Rβ targeted by the antibodies was injected over the captured antibody array at 6 concentrations in 4-fold dilution series starting at 500 nM. Binding data was referenced and blanked from a buffer injected, then globally fit to a 1:1 Langmuir binding model for estimation of ka, kd, and KD using Carterra Kinetics Software.

[4] = target: T3, human IL-18Rα (human, UniProt Q13478 19-329, limits assumed); test: as above
T3 construct: Monomeric antigen injected in SPR; also called huIL18Ra; IL-18R alpha
T3 sequence: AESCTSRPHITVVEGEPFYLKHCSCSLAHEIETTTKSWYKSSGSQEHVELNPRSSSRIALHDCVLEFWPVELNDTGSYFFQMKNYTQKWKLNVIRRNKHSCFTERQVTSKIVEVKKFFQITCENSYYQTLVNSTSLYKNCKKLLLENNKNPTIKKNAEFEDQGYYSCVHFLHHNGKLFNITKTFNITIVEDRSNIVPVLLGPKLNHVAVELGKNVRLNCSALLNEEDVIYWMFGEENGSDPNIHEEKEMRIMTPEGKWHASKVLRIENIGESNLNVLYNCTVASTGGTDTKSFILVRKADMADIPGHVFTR
Experimental: as §1

[5] = target: T4, cynomolgus IL-18Rα (cynomolgus, UniProt A0A2K5V3J9 19-328); test: as above
T4 construct: also called Cyno IL-18Rα; non-human primate IL-18Rα
T4 sequence: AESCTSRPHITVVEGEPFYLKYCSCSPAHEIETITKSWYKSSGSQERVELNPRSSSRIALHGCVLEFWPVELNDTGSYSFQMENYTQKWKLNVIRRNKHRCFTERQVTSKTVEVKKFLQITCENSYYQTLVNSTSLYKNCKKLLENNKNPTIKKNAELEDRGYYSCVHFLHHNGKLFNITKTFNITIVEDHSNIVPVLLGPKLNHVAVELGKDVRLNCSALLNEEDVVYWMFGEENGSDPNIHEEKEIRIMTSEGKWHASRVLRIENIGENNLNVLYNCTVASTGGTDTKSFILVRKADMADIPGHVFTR
Experimental: as §1

B1: DGL333 (bispecific antibody)
heavy 1: EVQLLESGGGLVQPGGSLRLSCAASGRTFSKHAMGWFRQAPGKGLEFVSAIDWSGGSTYYADSVKGRFTISRDNSKNTVYLQMNSLRAEDTAVYYCAADSYTDYAQLWLPELESEYDYWGQGTLVTVSSCPPCPAPEAAGAPSVFLFPPKPKDTLYITREPEVTCVVVDVSHEDPEVKFNWYVDGVEVHNAKTKPREEQYNSTYRVVSVLTVLHQDWLNGKEYKCKVSNKALPAPIEKTISKAKGQPREPQVCTLPPSRDELTKNQVSLSCAVKGFYPSDIAVEWESNGQPENNYKTTPPVLDSDGSFFLVSKLTVDKSRWQQGNVFSCSVMHEALHNHYTQKSLSLSPG
heavy 2: QLQLLESGGGLVQPGGSLRLSCAASRSITFSHNVMGWYRQAPGKGRELVSSIGSGGSTNYVDSVKGRFTISRDNSKKTLYLQMNSLRAEDTAVYYCGVVVGVYRGSLGQGTLVTVSSCPPCPAPEAAGAPSVFLFPPKPKDTLYITREPEVTCVVVDVSHEDPEVKFNWYVDGVEVHNAKTKPREEQYNSTYRVVSVLTVLHQDWLNGKEYKCKVSNKALPAPIEKTISKAKGQPREPQVYTLPPCRDELTKNQVSLWCLVKGFYPSDIAVEWESNGQPENNYKTTPPVLDSDGSFFLYSKLTVDKSRWQQGNVFSCSVMHEALHNHYTQKSLSLSPG
EC50 (read off the curve), HEK Blue IL-18 SEAP reporter [1]: ~6 nM

B2: DGL023 (bispecific antibody, human IgG1, kappa, L234A L235A)
heavy 1: EVQLVESGGGLVQPGGSLRLSCAASGFTRSYYTIAWFRQAPGKEREGISCIRNTDGSTVVSDSVEGRFTISRDNAKNTVFLQMNSLKTEDTAVYYCAARNDRYGGLCSVRHNYEYWGQGTQVTVSSDKTHTCPPCPAPEAAGGPSVFLFPPKPKDTLMISRTPEVTCVVVDVSHEDPEVKFNWYVDGVEVHNAKTKPREEQYNSTYRVVSVLTVLHQDWLNGKEYKCKVSNKALPAPIEKTISKAKGQPREPQVCTLPPSRDELTKNQVSLSCAVKGFYPSDIAVEWESNGQPENNYKTTPPVLDSDGSFFLVSKLTVDKSRWQQGNVFSCSVMHEALHNHYTQKSLSLSPG
heavy 2: not shown
light: DIQMTQSPSSLSASVGDRVTITCQATEDIESFLAWYQQKPGQAPKLLIYRASTLESGVPSRFSGSGSGTDFTLTISSLQPEDFATYYCQSTVYGVNFVANAFGGGTKVVIKRTVAAPSVFIFPPSDEQLKSGTASVVCLLNNFYPREAKVQWKVDNALQSGNSQESVTEQDSKDSTYSLSSTLTLSKADYEKHKVYACEVTHQGLSSPVTKSFNRGEC
HEK-Blue IL-18: Emax (Abs at 630 nm) at 10^8 (average of two replicates) [2]: 0.37 Abs at 630 nm

B3: VHH505 (VHH)
VHH: QLQLVESGGGLVQAGGSLRLSCAASRSITFSHNVMGWYRQAPGKQRELVASIGSGGSTNYVDSVKGRATISRDNAKKTVYLQMNSLKPEDTAVYYCGVVVGVYRGSLGQGTQVTVSS
notes: also called VHH505_beta
Kd [3]: 1.6 nM

B4: VHH363 (VHH)
VHH: QVQLVESGGGLVQAGGSLRLSCAASGRTFSSYTMGWFRQAPGKEREFVAAISWSAGRTYYADSVKGRFTISRDNAKNTVYLQMNSLKPEDTAVYFCAAEEAPDWAPIDCSGYGCLSLYDYWGQGTQVTVSS
notes: also called VHH363_alpha
Kd [4]: 34 nM
Kd [5]: 95 nM

B5: DGL012 (bispecific antibody, human IgG1, kappa, L234A L235A)
heavy 1: EVQLVESGGGLVQAGGSLRLSCAASGRTFSDARMGWFRQAPGRERELIAFISWFGSNTNYGSSVKGRFTISRDNTKNTVYLQMNSLKLEDTAVYYCAACRQSICIDSAEYFDDWGQGTQVTVSSDKTHTCPPCPAPEAAGGPSVFLFPPKPKDTLMISRTPEVTCVVVDVSHEDPEVKFNWYVDGVEVHNAKTKPREEQYNSTYRVVSVLTVLHQDWLNGKEYKCKVSNKALPAPIEKTISKAKGQPREPQVCTLPPSRDELTKNQVSLSCAVKGFYPSDIAVEWESNGQPENNYKTTPPVLDSDGSFFLVSKLTVDKSRWQQGNVFSCSVMHEALHNHYTQKSLSLSPG
heavy 2: not shown
light: DIQMTQSPSSLSASVGDRVTITCQASESIDNWLAWYQQKPGQAPKLLIYSASNLASGVPSRFSGSGSGTDFTLTISSLQPEDFATYYCQSTFYGVNPVPNAFGQGTKVVIKRTVAAPSVFIFPPSDEQLKSGTASVVCLLNNFYPREAKVQWKVDNALQSGNSQESVTEQDSKDSTYSLSSTLTLSKADYEKHKVYACEVTHQGLSSPVTKSFNRGEC
HEK-Blue IL-18: Emax (Abs at 630 nm) at 10^8 (average of two replicates) [2]: 0.28 Abs at 630 nm

B6: DGL020 (bispecific antibody, human IgG1, kappa, L234A L235A)
heavy 1: B5 heavy 1
heavy 2: not shown
light: B2 light
HEK-Blue IL-18: Emax (Abs at 630 nm) at 10^8 (average of two replicates) [2]: 0.37 Abs at 630 nm

B7: VHH285 (VHH)
VHH: QVQLVESGGGLVQAGGSLRLSCAASGRTFSKHAMGWFRQAPGKEREFVAAIDWSGGSTYYADSVKGRFTISRDNAKNTVYLQMDSLKPEDTAVYYCAADSYTDYAQLWLPELESEYDYWGQGTQVTVSS
notes: also called VHH285_alpha
Kd [4]: 15 nM
Kd [5]: 14 nM
